Data as given in paper PMC8233511.
Read-outs that look alike come from different tables or passages of the source.

Tests used:
Test in all cases: EMSA
[1] = target: T1, Oct4 POU domain homodimer (UniProt P20263 131-282)
[2] = target: T1, Oct4 POU domain homodimer; remark: listed apart in the source
[3] = target: Oct4 POU domain;Sox17 HMG domain (mouse?;mouse?, UniProt P20263;Q61473 131-282;68-136, |)
[4] = target: Oct4 POU domain;Sox2 HMG domain (mouse?;mouse?, UniProt P20263;P48432 131-282;43-111, |)
Oct4 POU domain = Oct4 POU domain (UniProt P20263 131-282)
Sequence of Oct4 POU domain (P20263 131-282): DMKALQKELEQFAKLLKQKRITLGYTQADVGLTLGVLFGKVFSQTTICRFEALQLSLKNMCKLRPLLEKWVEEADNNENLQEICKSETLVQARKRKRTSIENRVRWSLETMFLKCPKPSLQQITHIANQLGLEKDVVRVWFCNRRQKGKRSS

T1 sequence (P20263 131-282): as above
Sequence of Oct4 POU domain;Sox17 HMG domain (P20263 131-282, chain 1 of 2): as the sequence (P20263 131-282) above
Sequence of Oct4 POU domain;Sox17 HMG domain (Q61473 68-136, chain 2 of 2): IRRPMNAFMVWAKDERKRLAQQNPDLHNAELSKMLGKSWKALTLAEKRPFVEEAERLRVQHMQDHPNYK
Sequence of Oct4 POU domain;Sox2 HMG domain (P20263 131-282, chain 1 of 2): as the sequence (P20263 131-282) above
Sequence of Oct4 POU domain;Sox2 HMG domain (P48432 43-111, chain 2 of 2): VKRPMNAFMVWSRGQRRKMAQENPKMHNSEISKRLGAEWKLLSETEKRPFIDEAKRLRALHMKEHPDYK

B1: MOREA4 (dsDNA)
DNA 1: GCCGCCATGAATATTCATGCCGCCGC
DNA 2: GCGGCGGCATGAATATTCATGGCGGC
binding result [1]: binds

B2: PORE (dsDNA)
DNA 1: GGATCCATTTGCCTTTCAAATGTGG
DNA 2: CCACATTTGAAAGGCAAATGGATCC
binding result [2]: binds

B3: MOREC4 (dsDNA)
DNA 1: GGCCTCATGCATATGCATGCGGCGG
DNA 2: CCGCCGCATGCATATGCATGAGGCC
binding result [1]: binds

B4: MOREA4+1 (dsDNA)
DNA 1: GCCGCCATGAATAATTCATGCCGCCG
DNA 2: CGGCGGCATGAATTATTCATGGCGGC
binding result [1]: binds

B5: SoxOct compressed (dsDNA)
DNA 1: GGCGGCATTGTATGCAAATCGGCGG
DNA 2: CCGCCGATTTGCATACAATGCCGCC
binding result [3]: binds

B6: SoxOct canonical (dsDNA)
DNA 1: GCGGCATTGTCATGCAAATCGGCGG
DNA 2: CCGCCGATTTGCATGACAATGCCGC
binding result [4]: binds

B7: Octamer (dsDNA)
DNA 1: GGCGGCGGATGCAAATCGGCGGCGG
DNA 2: CCGCCGCCGATTTGCATCCGCCGCC
binding result (Oct4 POU domain): binds
